The target in this assay is N-type calcium channels (Mus musculus, UniProt O55017). The assay is classed as cell-based, Swiss mice. Conditions: Tat-NR2B9c 100 μM, conotoxin 1 μM, FIG. 5A.

In the case of “YGRKKRRQRRRKLSSIESDV [Tat-NR2B9c] (Synthetic peptide Tat-NR2B9c) [chimeric peptide of a standard tat peptide and …]”, the “additional inhibition of Ca^2+ current once N-channels are blocked by Omega conotoxin” value was “no additional inhibition”.

For the origin of these results see patent US9365620B2, “Methods for treating pain” (NoNO NC., priority 2008, dated 2016).
